# Reference: publication doi:10.1101/2021.10.01.462756 (bioRxiv, 2021)
# T1: His-PK-Mec3 (S. cerevisiae, UniProt Q02574 1-474)
# T1 sequence: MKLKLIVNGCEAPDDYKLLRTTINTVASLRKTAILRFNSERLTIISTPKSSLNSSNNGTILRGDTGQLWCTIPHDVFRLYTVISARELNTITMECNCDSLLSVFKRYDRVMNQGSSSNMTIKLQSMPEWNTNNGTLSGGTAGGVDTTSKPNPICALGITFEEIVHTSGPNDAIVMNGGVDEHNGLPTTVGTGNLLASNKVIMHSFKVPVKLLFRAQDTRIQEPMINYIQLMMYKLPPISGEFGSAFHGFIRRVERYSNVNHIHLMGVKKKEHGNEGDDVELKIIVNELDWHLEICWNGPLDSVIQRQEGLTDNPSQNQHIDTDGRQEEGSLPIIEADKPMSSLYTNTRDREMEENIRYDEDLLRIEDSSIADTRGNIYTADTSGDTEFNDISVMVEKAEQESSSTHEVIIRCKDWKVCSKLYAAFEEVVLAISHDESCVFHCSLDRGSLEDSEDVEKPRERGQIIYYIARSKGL
# T2: Ddc1 (S. cerevisiae, UniProt Q08949 1-612)
# T2 sequence: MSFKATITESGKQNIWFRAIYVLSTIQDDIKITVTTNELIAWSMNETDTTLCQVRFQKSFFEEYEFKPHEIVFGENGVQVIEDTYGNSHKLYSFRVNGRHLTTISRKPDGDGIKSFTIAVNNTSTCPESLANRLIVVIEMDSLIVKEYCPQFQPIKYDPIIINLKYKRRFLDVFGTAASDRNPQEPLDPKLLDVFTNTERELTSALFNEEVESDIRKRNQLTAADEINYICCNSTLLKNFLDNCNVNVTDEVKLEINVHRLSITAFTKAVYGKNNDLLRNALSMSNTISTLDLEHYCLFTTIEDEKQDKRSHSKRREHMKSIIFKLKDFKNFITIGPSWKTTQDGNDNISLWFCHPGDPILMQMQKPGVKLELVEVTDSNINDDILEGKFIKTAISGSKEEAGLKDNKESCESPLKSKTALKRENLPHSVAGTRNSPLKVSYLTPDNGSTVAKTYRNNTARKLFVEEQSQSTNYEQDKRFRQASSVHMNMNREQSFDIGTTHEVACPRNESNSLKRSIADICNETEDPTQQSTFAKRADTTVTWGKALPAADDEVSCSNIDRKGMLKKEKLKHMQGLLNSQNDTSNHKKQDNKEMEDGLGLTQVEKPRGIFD
# Assays:
# Test in all cases: cryo-EM structure
# [1] = molecular target: Rad24-RFC clamp loader (Rad24, Rfc2, Rfc3, Rfc4, Rfc5) (S. cerevisiae, UniProt P32641;P40348;P38629;P40339;P38251)
# His-PK-Mec3 = molecular target: T1, His-PK-Mec3
# Ddc1 = molecular target: T2, Ddc1
Binder,binding result [1],binding result (His-PK-Mec3),binding result (Ddc1)
9-1-1 clamp (Ddc1–Mec3–Rad17) (complex) chain 1: MSFKATITESGKQNIWFRAIYVLSTIQDDIKITVTTNELIAWSMNETDTTLCQVRFQKSFFEEYEFKPHEIVFGENGVQVIEDTYGNSHKLYSFRVNGRHLTTISRKPDGDGIKSFTIAVNNTSTCPESLANRLIVVIEMDSLIVKEYCPQFQPIKYDPIIINLKYKRRFLDVFGTAASDRNPQEPLDPKLLDVFTNTERELTSALFNEEVESDIRKRNQLTAADEINYICCNSTLLKNFLDNCNVNVTDEVKLEINVHRLSITAFTKAVYGKNNDLLRNALSMSNTISTLDLEHYCLFTTIEDEKQDKRSHSKRREHMKSIIFKLKDFKNFITIGPSWKTTQDGNDNISLWFCHPGDPILMQMQKPGVKLELVEVTDSNINDDILEGKFIKTAISGSKEEAGLKDNKESCESPLKSKTALKRENLPHSVAGTRNSPLKVSYLTPDNGSTVAKTYRNNTARKLFVEEQSQSTNYEQDKRFRQASSVHMNMNREQSFDIGTTHEVACPRNESNSLKRSIADICNETEDPTQQSTFAKRADTTVTWGKALPAADDEVSCSNIDRKGMLKKEKLKHMQGLLNSQNDTSNHKKQDNKEMEDGLGLTQVEKPRGIFD chain 2: MKLKLIVNGCEAPDDYKLLRTTINTVASLRKTAILRFNSERLTIISTPKSSLNSSNNGTILRGDTGQLWCTIPHDVFRLYTVISARELNTITMECNCDSLLSVFKRYDRVMNQGSSSNMTIKLQSMPEWNTNNGTLSGGTAGGVDTTSKPNPICALGITFEEIVHTSGPNDAIVMNGGVDEHNGLPTTVGTGNLLASNKVIMHSFKVPVKLLFRAQDTRIQEPMINYIQLMMYKLPPISGEFGSAFHGFIRRVERYSNVNHIHLMGVKKKEHGNEGDDVELKIIVNELDWHLEICWNGPLDSVIQRQEGLTDNPSQNQHIDTDGRQEEGSLPIIEADKPMSSLYTNTRDREMEENIRYDEDLLRIEDSSIADTRGNIYTADTSGDTEFNDISVMVEKAEQESSSTHEVIIRCKDWKVCSKLYAAFEEVVLAISHDESCVFHCSLDRGSLEDSEDVEKPRERGQIIYYIARSKGL chain 3: MRINSELANKFSASTVHLEHITTALSCLTPFGSKDDVLIFIDADGLSFVRENNHVIKIQLLLSRELFMSYSYRNETEDHMKLCVKINHILDSVSVMNRNSDDIVECTLSYDGHGSPFVLIFEDSFISERVEYSTYLIKDFDTNGLELDRERISFEAIIKGEALHSALKDLKEIGCKECYVYAKTEANDENVFALISKSQLGFSKIKLPSNRSILEKLQVFDGDSTTVIDGFAVIGFFDFTSFDKIRKSTKIASKVLFRMDVHGVLSVNILSQTDDVIITDTTRPSNNRPGSIRQLQLPKDYPGIVIEVCMLEKESIDEAAQTEIELLMETNELGNRNSFKKSTIRKRYGTDKGNETSNDNLLQLNGKKIKLPSEEENNKNRESEDEENHCKYPTKDIPIFF,binds,,
Rad17 (natural protein) MRINSELANKFSASTVHLEHITTALSCLTPFGSKDDVLIFIDADGLSFVRENNHVIKIQLLLSRELFMSYSYRNETEDHMKLCVKINHILDSVSVMNRNSDDIVECTLSYDGHGSPFVLIFEDSFISERVEYSTYLIKDFDTNGLELDRERISFEAIIKGEALHSALKDLKEIGCKECYVYAKTEANDENVFALISKSQLGFSKIKLPSNRSILEKLQVFDGDSTTVIDGFAVIGFFDFTSFDKIRKSTKIASKVLFRMDVHGVLSVNILSQTDDVIITDTTRPSNNRPGSIRQLQLPKDYPGIVIEVCMLEKESIDEAAQTEIELLMETNELGNRNSFKKSTIRKRYGTDKGNETSNDNLLQLNGKKIKLPSEEENNKNRESEDEENHCKYPTKDIPIFF,,binds,binds
